One series has as its system U78 MG tumour. Put plainly: efficacy of BCNU matrices in tumour-bearing nude mice (FIG. 2). The series is classed as in vivo. To be noted: U78 MG tumour subcutaneously inoculated. As to the method: Thus the effectiveness of BCNU in tumour-bearing nude mice (U78 MG tumour subcutaneously inoculated) is the same for a lipid matrix according to the invention and for a conventional polyanhydride matrix, as shown in FIG. 2.
In FIG. 2, the area of the tumour is plotted in […] on the ordinate, and the time in days on the abscissa.

For series [1] the following is noted: cited from earlier work.
A short description of series [2]: release of model substances from cylindrical lipid carrier systems with differing gelatin content (FIGS. 3 and 4). The series is classed as physicochemical. The following applies: phosphate buffer pH 7.4, 37° C.; for period of controlled release: lipid matrix with 0, 1, 5, 10 and 20% gelatin, cylindrical; for control of release via gelatin content: fluorescence intensity. From the text:
FIGS. 3 and 4 show diagrams illustrating the dependence of the rate of release on the proportion of release-controlling substance in the carrier system according to the invention. In the embodiment shown in FIGS. 3 and 4, a lipid matrix composed of glycerol tripalmitate with differing gelatin contents […]. The carrier system used is cylindrical in shape.
The proportion of gelatin within the carrier system is 0, 1, 5, 10 and 20%.
The quantity released in percent is shown on the ordinate, and the time in days on the abscissa.
Substances used for the release from the carrier system (for example pyranine or tetramethylrhodamine-labelled bovine serum albumin (TAMRA-BSA) were dispersed in the desired quantity in an aqueous 15% (m/m) gelatin solution. 100-μl portions of this dispersion were pipetted into each opening in a 96-hole plate, and freeze-dried. The lyophilisate was comminuted in a mortar, and mixed with glyceryl trimyristate in a desired percentage. Powder mixtures with a content of up to 30% (m/m) of gelatin resulted. Cylindrical carrier systems were produced by compressing the corresponding proportions by weight of gelatin with lipid granulate. To this end, 7 mg of substance was produced in a 2-mm pressing tool using a compressive force of 250 N over 10 sec. In this way, carrier system charged with pyranine or fluorescence-labelled bovine serum albumin (TAMRA-BSA) were produced in the composition, as shown in Table 1.
(§1) To test the release of model substances from carrier systems depending on the content of release-controlling substance, the cylinders obtained in Example 1 were incubated at 37° C. in 40 ml of phosphate buffer at pH 7.4. The release of the substances was monitored by measuring the fluorescence intensity. To this end, pyranine was excited at 407 nm and the emission measured over 436 nm. The TAMRA-BSA content was determined at a wavelength of 572 nm with excitation at 541 nm.

Series [3] is described as follows: release of active hyaluronidase from carrier matrices in phosphate buffer, activity via Morgan-Elson reaction (FIG. 1). The format is physicochemical. As to the method: The ordinate gives the release quantity of hyaluronidase in percent, and the abscissa the time in hours.
as §1
To test the stabilising properties of the carrier systems, glyceryl trimyristate was worked up with hyaluronidase. To this end, 25 mg neopermease, a mixture of 200,000 IU hyaluronidase and gelatin, was mixed with 325 mg of lipid and compressed as described in Example 1 to form cylindrical carrier systems weighing 7 mg. The gelatin content of this mixture was approximately 7.1%. To determine the release of the enzyme, 5 matrices were incubated with phosphate buffer as described in Example 2, and the release determined by measuring the activity via the Morgan-Elson reaction (Muckenschnabel I., Cancer Lett. 131(1) (1998) 13 to 20).

Results on four molecules are retold here after patent US20050079218A1, “Matrices for the stabilizing and controlled release of problematic substances” (priority 2001, published 2005).

Regarding `O=NN(CCCl)C(=O)NCCCl` [BCNU, carmustine], the “effectiveness (tumour area over time), lipid matrix versus conventional polyanhydride matrix” value with U78 MG tumour is listed as “the same”. Further, the half-life in plasma result in series [1] was “approximately 20 minutes”.

Regarding `O=S(=O)([O-])c1cc(O)c2ccc3c(S(=O)(=O)[O-])cc(S(=O)(=O)[O-])c4ccc1c2c34.[Na+].[Na+].[Na+]` [pyranine], in series [2], the “period of controlled release” value is given as “over a period of several weeks” and the “control of release via gelatin content” value is recorded as “optimally controlled via the gelatin content”.

In the case of “TAMRA-BSA: bovine serum albumin fluorescence-labelled with tetramethylrhodamine”, in series [2], the “period of controlled release” value was “over a number of weeks or months” and the “control of release via gelatin content” value is “optimally controlled via the gelatin content”.

For hyaluronidase, in series [3] (glyceryl trimyristate cylinders, gelatin approximately 7.1%, phosphate buffer pH 7.4, 37° C.), the “activity liberated from carrier system” value is listed as “all the activity is liberated”. In addition, in series [3] (release from conventional system poly(1,3-bis[carboxyphenoxypropane]-sebacic acid) 20:80), the “effect of release on the enzyme” value was “inactivation”. Moreover, in series [3] (release from glyceryl tripalmitate matrix), the “activity of the enzyme achieved on release” value is 100%.
